In assay [1] the target is T1, trypsin (Sus scrofa, UniProt P00761).
T1 construct: purchased Promega V5111
The experiment in a line: Bulk (in-solution) trypsin digestion of peptide substrate, RP-HPLC separation and MALDI-TOF mass spectrometry, SERS of separated fractions. It counts as biochemical. The following applies: for change of 1003 cm^-1 phenylalanine SERS peak in cleaved fraction after trypsin cleavage: cleaved vs uncleaved fractions labelled on gold nanodome chips; for extent of substrate digestion by trypsin (RP-HPLC/MALDI-TOF): peptide 100 μg/ml, trypsin 3.3 μg/ml (1/30 w/w), 50 mM ammonium-bicarbonate pH 7.8, 37° C. How it is done:
As a first step, the activity of the protease on the substrate in solution was monitored. RP-HPLC was used to separate the substrate from the digestion products, which are subsequently labelled on a nanodome platform. From the difference spectrum, the characteristic peaks of the cleaved-off and remaining fractions are derived. FIG. 4(a2-a4) depicts the results of this experiment for trypsin and its CALNNYGGGGVRGNF (100 μg/ml) (SEQ ID NO:3) substrate. The peptide was incubated with trypsin (3.3 μg/ml) at a 1/30 (w/w) ratio in a 50 mM ammonium-bicarbonate (pH 7.8) buffer in water, and separated with RP-HPLC (FIG. 4(a2)) after 0, 30 and 90 minutes of incubation. The RP-HPLC-separated peptides and their fragments were identified using MALDI-TOF mass spectrometry. […] The dimer formation is a consequence of the oxidation of the cysteine thiol groups upon which a disulphide bond is formed between two peptides. […] Subsequently, nanodome chips were labeled with cleaved and uncleaved fractions. […] Furthermore, the peaks at 618 cm^−1, 1030 cm^−1 and 1207 cm^−1 show a partial decrease, although their signal to noise ratio is low. All these peaks correspond to those attributed to phenylalanine (Table 1). From this experiment, it is concluded that the ratio between the 1003 cm^−1 peak and the 829-860 cm^−1 peaks (I1003/I829-860) is a correct metric for IF/IY, the cleavage of the substrate by trypsin.
The activity of trypsin on the peptides with unnatural aromatic amino acids was verified using HPLC/mass spectrometry, showing complete digestion of 100 μg/ml peptide after 1 hour incubation with a 4 μg/ml Trypsin concentration. Subsequently, cleaved and uncleaved fractions were labelled on a nanodome SERS substrate.

The next assay deals with endoproteinase Glu-C (Staphylococcus aureus, UniProt P0C1U8).
In assay [2] the target is T1, trypsin. Briefly: SERS-monitored trypsin hydrolysis of gold-nanodome bound peptides (with and without ovomucoid inhibitor). It counts as biochemical. The conditions noted are these: for decrease of SERS intensity ratio I1003/I829-860: gold-nanodome bound peptide. How it is done:
In a third experimental setup, three CALNNYGGGGVRGNF (SEQ ID NO:3) labelled nanodome chips were incubated in a buffer without trypsin, with trypsin and with trypsin plus an ovomucoid inhibitor for 45 minutes (FIG. 6). […] On the chip with trypsin only, the surface bound peptides are cleaved, resulting in a decrease of 11003/1829-860 by 40-48%. […] Two possible origins are considered for the remaining signal at 1003 cm^−1. […] More likely, the remaining signal originates from peptides that are not accessible to the protease due to steric hindrance. This can be a result of a too dense monolayer of peptides (refs 11, 23) or inaccessible parts of the nanodome geometry. Especially in the latter case, the inaccessible peptides are probably located in the nanodome gaps and will contribute disproportionally strong to the SERS signal.
Spectra were acquired on a WITec Alpha 300 R+ confocal Raman microscope equipped with spectrometer using a 600 lpmm grating, a −70° C. cooled CCD camera (Andor iDus 401 BR-DD) and a 785 nm diode laser (Toptica, XTRA II). Raman spectra of the peptide powders were acquired using a Zeiss 100×/0.9 EC Epiplan NEOFLUAR; ∞/0 objective and a laser power of 100 mW, measured before the objective. SERS spectra were acquired through a Zeiss 63×/1.0 W-Plan Apochromat ∞/0 objective with 2 mW laser power. For real-time monitoring of enzymatic activity, the chip was placed in a metal petri dish filled with 1 ml 50 mM ammonium bicarbonate buffer (pH 7.8) inside a stage-top incubator at 37° C. (Okolab). Because of signal degradation upon laser illumination, each trace is the median spectrum of a spatially distributed map of 10×10 pixels in a 20×20 μm area with an integration time of 1 s on each point. In the real-time assay, every next trace was mapped on a different location on the SERS platform. […]
(§1) Starting from the 10×10 individual spectra, WITec Project Four® was used for removing cosmic rays. […] 11003 and 1829-860 were calculated by integrating the peaks at their respective positions and subtracting the background with a linear fit for the individual spectra. […]

The target in assay [3] is T1, trypsin. The experiment in a line: Trypsin hydrolysis of unbound peptide observed through SERS spectra of a non-separated mixture. It counts as biochemical. The conditions noted are these: peptide 100 μg/ml, trypsin 2 μg/ml, 2 hours of incubation, no RP-HPLC separation. From the text: Apart from a thiol-gold interaction, N-terminal primary amines can also lead to a charge-based adsorption on metal surfaces (ref 39). This effect may be additive in the case of cysteine, but could lead to the adsorption of unwanted amino acids on the gold surface. In a second set of in-solution experiments, a similar trypsin was run—CALNNYGGGGVRGNF (SEQ ID NO:3) assay without separating the fractions by RP-HPLC (FIG. 5). One nanodome chip was labelled with a reference solution of the peptide (100 μg/ml), another with a solution of peptide (100 μg/ml) and trypsin (2 μg/ml) after 2 hours of incubation. […] Furthermore, the SERS and difference SERS-spectra shown in FIG. 5 confirm the findings of the RP-HPLC experiment in FIG. 4(a).
Spectra were acquired on a WITec Alpha 300 R+ confocal Raman microscope equipped with spectrometer using a 600 lpmm grating, a −70° C. cooled CCD camera (Andor iDus 401 BR-DD) and a 785 nm diode laser (Toptica, XTRA II). Raman spectra of the peptide powders were acquired using a Zeiss 100×/0.9 EC Epiplan NEOFLUAR; ∞/0 objective and a laser power of 100 mW, measured before the objective. SERS spectra were acquired through a Zeiss 63×/1.0 W-Plan Apochromat ∞/0 objective with 2 mW laser power. […]

Assay [4] concerns the target T1, trypsin. Briefly: Real-time SERS observation of trypsin activity on gold-nanodome bound peptide. Type of assay: biochemical. The protocol: Finally, CALNNYGGGGVRGNF (SEQ ID NO:3) labelled chips were incubated with trypsin under the Raman microscope for a real-time acquisition of SERS spectra. […] A new spectrum was acquired every 2-3 minutes with an integration time of 100 seconds. A relative decrease of I1003 versus the peaks at 829, 860, 948, 1248, 1330, 1603 and 1677 cm^−1 is visible within the first minutes after adding 0.2 μg/ml trypsin (8.6 nM) to a total volume of 1 ml (8.6 pmol), in agreement with Table 1 and the earlier experiments described in this work. SERS spectra after 2 minutes and 30 minutes of trypsin incubation show a further reduction of I1003 and I1206 with increasing incubation time (FIG. 7 (b)). […]
Spectra were acquired on a WITec Alpha 300 R+ confocal Raman microscope equipped with spectrometer using a 600 lpmm grating, a −70° C. cooled CCD camera (Andor iDus 401 BR-DD) and a 785 nm diode laser (Toptica, XTRA II). Raman spectra of the peptide powders were acquired using a Zeiss 100×/0.9 EC Epiplan NEOFLUAR; ∞/0 objective and a laser power of 100 mW, measured before the objective. […]
as §1

Square brackets hold non-standard residues; d marks the D form. Ends that are not written are not given here. Bpa = N[C@@H](Cc1ccc(C(=O)c2ccccc2)cc1)C(=O)O; Phe(4-CN) = N#Cc1ccc(C[C@H](N)C(=O)O)cc1 A value given as a limit tells only on which side of the number the result lay.

T1 sequence (P00761 9-231): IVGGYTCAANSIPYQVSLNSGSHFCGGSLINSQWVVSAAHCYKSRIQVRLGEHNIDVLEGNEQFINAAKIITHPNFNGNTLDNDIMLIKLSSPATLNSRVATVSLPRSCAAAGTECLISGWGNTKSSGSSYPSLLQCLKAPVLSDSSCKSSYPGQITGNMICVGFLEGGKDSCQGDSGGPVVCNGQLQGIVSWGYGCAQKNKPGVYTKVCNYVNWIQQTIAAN
Sequence of endoproteinase Glu-C (P0C1U8 69-336): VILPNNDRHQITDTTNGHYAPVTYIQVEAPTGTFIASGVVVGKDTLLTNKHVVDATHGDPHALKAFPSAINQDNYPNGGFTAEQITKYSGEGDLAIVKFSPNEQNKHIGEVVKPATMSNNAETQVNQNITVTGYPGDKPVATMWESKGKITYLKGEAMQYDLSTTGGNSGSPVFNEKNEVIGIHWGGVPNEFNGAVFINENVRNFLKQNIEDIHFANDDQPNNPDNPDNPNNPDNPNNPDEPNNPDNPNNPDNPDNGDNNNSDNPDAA
Method for endoproteinase Glu-C: Peptides were first dissolved to 100 μg/μl in DMF and further diluted to 100 μg/ml in either a 10% acetonitrile/water mixture for labelling or a 50 mM ammonium bicarbonate buffer (pH 7.8) for bulk digestion experiments. Prior to labelling the chips with the peptides, they were cleaved into pieces of a few mm^2 and cleaned by sonication in acetone, rinsed with isopropyl alcohol and water and dried with under a stream of nitrogen. Next, remaining organic contaminants were removed in an 02 plasma, which also renders the surface hydrophilic (120 s, PVA-TEPLA GIGAbatch 310 M, 6000 sccm O2, 600 W, 750 mTorr). Immediately afterwards, the chips were immersed in separate wells of a polypropylene 96-well plate, using 100 μl of a 100 μg/ml peptide solution in 10% acetonitrile in water. After overnight incubation, the chips were rinsed excessively with deionized water. […]
After incubation for a specific time at 37° C., 750 μl of a solution with 100 μg/ml substrate and 3.3 μg/ml trypsin or endoproteinase Glu-C in 50-100 mM ammonium bicarbonate was injected in a C-18 reversed phase high-performance liquid chromatography column (Macherey-Nagel) and eluted by a water/acetonitrile gradient (Akta Purifier, GE). The molecular weight of separated fractions was determined using matrix-assisted laser desorption/ionisation time-of-flight mass spectrometry (Bruker MALDI-TOF).

“CALNN(bzF)GGGGVRGNF (CALNN[Bpa]GGGGVRGNF) [trypsin substrate analogue, tyrosine replaced by benzoyl-phenylalanine]”: in the assay with trypsin [1], the “change of 1003 cm^-1 phenylalanine SERS peak in cleaved fraction after trypsin cleavage” value is given as “decrease”.

For “CALNN(cnF)GGGGVRGNF (CALNN[Phe(4-CN)]GGGGVRGNF) [trypsin substrate analogue, tyrosine replaced by 4-cyano-phenylalanine]”, in the assay with trypsin [1], the “change of 1003 cm^-1 phenylalanine SERS peak in cleaved fraction after trypsin cleavage” value is recorded as “complete disappearance”.

CALNNYGGGGNNESWH: the “conversion of substrate to products by endoproteinase Glu-C (RP-HPLC/mass spectrometry)” value on endoproteinase Glu-C (4 hours of incubation, peptide 100 μg/ml, endoproteinase Glu-C 3.3 μg/ml) is on record as “almost full conversion”. For the same molecule, the “change of 754 cm^-1 and 1356 cm^-1 (tryptophan) SERS peaks upon endoproteinase Glu-C cleavage” value at endoproteinase Glu-C (cleaved peptide vs uncleaved dimer bound to nanodome chips) is on record as “disappearance”.

Take “CALNNYGGGGVRGNF (trypsin substrate) [trypsin substrate peptide with Tyr and Phe SERS reporters]”: the “decrease of SERS intensity ratio I1003/I829-860” value in the assay with trypsin [2] (45 minutes incubation) is listed as 40-48%; in the assay with trypsin [2] (trypsin), at most 53%. Further, the “extent of digestion by trypsin, from lack of 1003 cm^-1 phenylalanine SERS peak” value with trypsin [3] was “fully digested”. Besides, in the assay with trypsin [4] (8.6 nM trypsin concentration), the “time course of digestion of gold-bound peptide in real-time monitoring” value is “immediate digestion within the first two minutes”. For the same molecule, in the assay with trypsin [4] (trypsin concentrations ranging from 1 to 0.2 μg/ml, 37° C., spectrum every 2-3 minutes), the “cleavage of accessible surface-bound substrate in real time (I1003/I829-860 versus time)” value was “most of the accessible substrate was cleaved within the time-span of the first measurement”. Further, the “extent of substrate digestion by trypsin (RP-HPLC/MALDI-TOF)” value was “almost fully digested” with trypsin [1] (30 minutes incubation) and “fully cleaved” with trypsin [1] (90 minutes incubation). For the same molecule, the “change of 1003 cm^-1 phenylalanine SERS peak in cleaved fraction after trypsin cleavage” value with trypsin [1] was “full disappearance”.

B1: ovomucoid inhibitor: Ovomucoid (Type II-0) Trypsin inhibitor from chicken egg white (Sigma, T9253) (protein, UniProt P01005 25-210, looked up)
Ovomucoid: AEVDCSRFPNATDKEGKDVLVCNKDLRPICGTDGVTYTNDCLLCAYSIEFGTNISKEHDGECKETVPMNCSSYANTTSEDGKVMVLCNRAFNPVCGTDGVTYDNECLLCAHKVEQGASVDKRHDGGCRKELAAVSVDCSEYPKPDCTAEDRPLCGSDNKTYGNKCNFCNAVVESNGTLTLSHFGKC
With B1, the “inhibition of tryptic cleavage of surface-bound peptide (SERS spectrum vs reference chip)” value with trypsin [2] (trypsin plus ovomucoid inhibitor, 45 minutes, inhibitor 100 μg/ml, substrate CALNNYGGGGVRGNF on nanodome chip) is reported as “full blockade of tryptic cleavage”.

Values taken from US20210079444A1, “LABEL FREE DETECTION OF PROTEASE ACTIVITY” (VIB VZW, priority 2017, published 2021).
